Experimental findings from PMC9296572, “An Unusual Oxidative Rearrangement Catalyzed by a Divergent Member of the 2‐Oxoglutarate‐Dependent Dioxygenase Superfamily during Biosynthesis of Dehydrofosmidomycin” (Angewandte Chemie (International Ed. in English), 2022) are described below.

This data set has as its system C[N+](C)(C)CCP(=O)([O-])O. Put plainly: O2 consumption, Clark-type electrode, initial rates in first minute. The data set is classed as biochemical, Streptomyces lavendulae. The settings on record: apparent; co-substrates 2-oxoglutarate and O2, Fe(II); two-turnover enzyme, value assumed to pertain to the desaturation to TMAVP.

As to DfmD (Streptomyces lavendulae), the Km (as a rule, the substrate concentration at which the rate is half of its maximum) turned out to be 160 µM and the kcat – broadly, the maximal rate divided by the concentration of active sites – amounted to 0.04 s⁻¹.
